Reference: patent publication US20220064276A1 (SCHOLAR ROCK, published 2022)
Substitutions are numbered along the chain they refer to. Read-outs that look alike come from different tables or passages of the source.

Assays:
[1] = target: T1, LTBP-proTGFβ1: transfected human proTGFβ1 presented by endogenous LTBP1/3 of LN229 cells (human); test: cell-based or functional assay
[2] = target: T2, mouse LTBP1-proTGFβ1 complex (mouse, UniProt Q8CG19 339-1712; P04202 30-390); test: cell-based or functional assay
[3] = target: T1, LTBP-proTGFβ1: transfected human …; test: cell-based or functional assay; remark: listed apart in the source
[4] = target: T2, mouse LTBP1-proTGFβ1 complex; test: cell-based or functional assay; remark: listed apart in the source
[5] = target: T3, human LTBP1-proTGFβ1 complex (human, UniProt Q14766 347-1721; P01137 30-390); test: Octet BLI, IgG captured
T3 construct: Large latent complex: one presenting molecule disulfide-linked to a proTGFβ1 dimer; also called Hu LTBP1-proTGFβ1; huLTBP1 proTGFβ1
Procedure: (§1) LTBP complex-specific antibodies from the first round of affinity maturation/optimization (SR-AB14, SR-AB16, SR-AB17, SR-AB18, SR-AB19) were selected for a second round of affinity maturation/optimization (i.e., CDR-H3 mutagenesis as described herein) and particular progeny antibodies (SR-AB20, SR-AB21, SR-AB22, SR-AB23, SR-AB24, SR-AB25, SR-AB26, SR-AB27, SR-AB28, and SR-AB29) were assessed for their ability to bind various proTGFβ1 constructs. Binding affinities of the optimized antibodies were measured by Octet against human LTBP1-proTGFβ1, human LTBP3-proTGFbl, mouse LTBP1-proTGFβ1, mouse LTBP3-proTGFbl, and GARP-proTGFβ1 complexes, essentially as described in Example 6. […] The antigens were allowed to associate for 3 minutes followed by a 5-minute dissociation. Kinetics buffer (ForteBio®) was used throughout the experiment, and KD was determined using a 1:1 fitting model for each antibody antigen pair.

[6] = target: T4, human LTBP3-proTGFβ1 complex (human, UniProt Q9NS15 44-1303; P01137 30-390, limits assumed); test: Octet BLI, IgG captured
T4 construct: Exemplary entries; also called Hu LTBP3-proTGFβ1; huLTBP3 proTGFb1
Procedure: as §1

[7] = target: T2, mouse LTBP1-proTGFβ1 complex; test: Octet BLI, IgG captured
Procedure: as §1

[8] = target: T3, human LTBP1-proTGFβ1 complex; test: Octet binning; competitor (immobilized second antibody) SR-AB1
Procedure: (§2) 500 nM of human LTBP1-proTGFb1 complex was pre-incubated with 1 μM of each test antibody. After an overnight incubation, the LTBP1-proTGFβ1+first antibody was tested for binding to a second antibody which was immobilized to an Anti-Human IgG Fc Capture (AHC) sensor tip at 67 nM. The sensor tip was blocked with a negative control antibody (HuNeg) before seeing the LTBP1-proTGFβ1+first antibody.
(§3) Normalized responses less than 70% or less than 0.7 of the uninhibited interaction were considered antibodies that cross block.

[9] = target: T3, human LTBP1-proTGFβ1 complex; test: Octet binning; competitor (immobilized second antibody) SR-AB2
Procedure: as §2, §3

[10] = target: T3, human LTBP1-proTGFβ1 complex; test: Octet binning; competitor (immobilized second antibody) SR-AB10
Procedure: as §2, §3

[11] = target: T3, human LTBP1-proTGFβ1 complex; test: Octet binning; competitor (immobilized second antibody) SR-AB13
Procedure: as §2, §3

[12] = target: T5, mouse LTBP3-proTGFβ1 complex (mouse, UniProt Q61810 41-1245; P04202 30-390, limits assumed); test: Octet (bio-layer interferometry), yeast expressed IgG1Agly antibody, antigen at a single 100 nM per Example 6
T5 construct: Exemplary entries; also called Mo LTBP3-proTGFβ1; Murine LTBP3 proTGFb1

[13] = target: T6, human GARP-proTGFβ1 complex (human, UniProt Q14392 18-627; P01137 30-390, limits assumed); test: as above
T6 construct: Exemplary entries; also called Hu GARP-proTGFβ1; huGARP proTGFb1

[14] = target: T3, human LTBP1-proTGFβ1 complex; test: Octet (bio-layer interferometry), yeast expressed IgG1Agly antibody, antigen at a single 100 nM per Example 6, 1:1 fit; value printed under the panel
[15] = target: T4, human LTBP3-proTGFβ1 complex; test: as above
[16] = target: T2, mouse LTBP1-proTGFβ1 complex; test: as above
[17] = target: T4, human LTBP3-proTGFβ1 complex; test: SPR Biacore 8K, Fab over captured antigen
Procedure: (§4) A Biacore 8K system was employed to determine the monovalent binding affinity and the kinetic parameters for antigen binding of test antibodies. Association and dissociation kinetics of Fab fragments SR-AB42-HuFab, SR-AB63-HuFab and SR-AB43-HuFab to antigen complexes were measured, and resulting ka, kd and KD are provided below. Briefly, the binding kinetics were evaluated by surface plasmon resonance using Biacore 8K (GE Healthcare). Biotinylated capture antigens were immobilized to the chip (10 nM, ˜200 RU loading). A Biotin CAPture sensor chip was used to capture the biotinylated antigens. […] 0 nM was used as a reference. […] 0 nM was used as a reference. Multi-cycle kinetics was employed where each analyte concentration was injected in a separate cycle and the sensor chip surface was regenerated after each cycle. A11 the assays were carried out in freshly prepared 1× HBS-EP+ buffer (10 mM HEPES, 150 mM NaCl, 3 mM EDTA, 0.05% Tween20, pH 7.4). Data were fit globally to a 1:1 binding model to obtain the kinetic parameters. The sensorgram for 0 nM analyte concentration was used as reference.

[18] = target: T3, human LTBP1-proTGFβ1 complex; test: SPR Biacore 8K, Fab over captured antigen; mean of 4
Procedure: as §4

[19] = target: T6, human GARP-proTGFβ1 complex; test: SPR Biacore 8K, Fab up to 100 nM over captured antigen
Procedure: as §4

[20] = target: T7, human LRRC33-proTGFβ1 complex (human, UniProt Q86YC3 19-650; P01137 30-390, limits assumed); test: as above
T7 construct: Exemplary entries; also called huLRRC33 proTGFb1; HuLRRC33-ProTGFb1
Procedure: as §4

[21] = target: T3, human LTBP1-proTGFβ1 complex; test: SPR (Biacore 8K), biotinylated antigen captured, Fab as analyte, 1:1 fit (Example 9); table beside the sensorgrams
Procedure: as §4

[22] = target: T4, human LTBP3-proTGFβ1 complex; test: as above
Procedure: as §4

[23] = target: T1, LTBP-proTGFβ1: transfected human …; test: cell-based or functional assay; remark: listed apart in the source
[24] = target: T2, mouse LTBP1-proTGFβ1 complex; test: cell-based or functional assay; remark: listed apart in the source
[25] = target: T1, LTBP-proTGFβ1: transfected human …; test: cell-based or functional assay; remark: listed apart in the source
[26] = target: T2, mouse LTBP1-proTGFβ1 complex; test: cell-based or functional assay; remark: listed apart in the source
[27] = target: T5, mouse LTBP3-proTGFβ1 complex; test: Octet BLI, IgG captured
Procedure: as §1

[28] = target: T5, mouse LTBP3-proTGFβ1 complex; test: Octet (bio-layer interferometry), yeast expressed IgG1Agly antibody, antigen at a single 100 nM per Example 6, 1:1 fit; value printed under the panel

T7 sequence (Q86YC3 19-650 limits assumed, chain 1 of 2): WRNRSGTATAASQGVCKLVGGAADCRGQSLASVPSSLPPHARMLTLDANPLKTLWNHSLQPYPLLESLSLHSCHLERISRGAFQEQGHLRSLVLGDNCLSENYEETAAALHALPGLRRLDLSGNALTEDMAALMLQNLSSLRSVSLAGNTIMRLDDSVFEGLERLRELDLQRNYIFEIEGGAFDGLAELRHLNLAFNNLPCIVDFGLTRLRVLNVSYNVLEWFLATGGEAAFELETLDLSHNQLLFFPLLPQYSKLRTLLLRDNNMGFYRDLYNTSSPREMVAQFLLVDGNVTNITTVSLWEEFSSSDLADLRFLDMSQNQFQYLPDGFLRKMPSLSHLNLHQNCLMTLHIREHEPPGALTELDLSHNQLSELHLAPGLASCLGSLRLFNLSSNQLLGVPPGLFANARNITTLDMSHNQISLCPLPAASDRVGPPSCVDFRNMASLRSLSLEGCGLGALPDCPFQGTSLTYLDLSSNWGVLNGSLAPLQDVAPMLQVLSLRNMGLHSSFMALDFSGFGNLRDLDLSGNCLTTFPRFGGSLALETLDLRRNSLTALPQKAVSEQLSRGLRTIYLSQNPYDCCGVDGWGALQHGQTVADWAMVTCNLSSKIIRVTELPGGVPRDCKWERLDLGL
T7 sequence (P01137 30-390 limits assumed, chain 2 of 2): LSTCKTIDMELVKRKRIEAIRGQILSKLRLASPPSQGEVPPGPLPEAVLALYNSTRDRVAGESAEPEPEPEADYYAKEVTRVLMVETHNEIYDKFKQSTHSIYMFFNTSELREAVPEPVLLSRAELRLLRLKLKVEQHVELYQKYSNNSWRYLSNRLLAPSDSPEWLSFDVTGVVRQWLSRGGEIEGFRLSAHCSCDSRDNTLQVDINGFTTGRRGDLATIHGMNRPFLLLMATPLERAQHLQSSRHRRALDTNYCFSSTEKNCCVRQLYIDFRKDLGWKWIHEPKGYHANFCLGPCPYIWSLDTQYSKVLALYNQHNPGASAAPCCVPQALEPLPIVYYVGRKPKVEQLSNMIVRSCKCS
T6 sequence (Q14392 18-627 limits assumed, chain 1 of 2): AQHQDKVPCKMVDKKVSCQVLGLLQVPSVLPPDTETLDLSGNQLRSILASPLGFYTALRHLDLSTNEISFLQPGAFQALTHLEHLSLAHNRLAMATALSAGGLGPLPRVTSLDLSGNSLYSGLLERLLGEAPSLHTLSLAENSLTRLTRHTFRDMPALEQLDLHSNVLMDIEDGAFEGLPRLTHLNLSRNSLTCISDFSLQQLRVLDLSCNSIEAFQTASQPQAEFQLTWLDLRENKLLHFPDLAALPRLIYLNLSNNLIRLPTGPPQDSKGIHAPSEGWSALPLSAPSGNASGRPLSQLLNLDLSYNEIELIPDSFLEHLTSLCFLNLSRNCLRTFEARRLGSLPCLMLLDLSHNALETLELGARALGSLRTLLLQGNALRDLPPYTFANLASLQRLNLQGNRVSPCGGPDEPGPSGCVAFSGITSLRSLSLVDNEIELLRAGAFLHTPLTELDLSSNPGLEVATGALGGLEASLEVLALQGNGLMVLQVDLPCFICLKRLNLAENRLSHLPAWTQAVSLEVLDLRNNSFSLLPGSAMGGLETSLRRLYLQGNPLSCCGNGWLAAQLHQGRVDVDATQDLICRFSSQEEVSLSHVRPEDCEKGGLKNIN
T6 sequence (P01137 30-390 limits assumed, chain 2 of 2): as the sequence (P01137 30-390 limits assumed, chain 2 of 2) above
T2 sequence (Q8CG19 339-1712 limits assumed, chain 1 of 2): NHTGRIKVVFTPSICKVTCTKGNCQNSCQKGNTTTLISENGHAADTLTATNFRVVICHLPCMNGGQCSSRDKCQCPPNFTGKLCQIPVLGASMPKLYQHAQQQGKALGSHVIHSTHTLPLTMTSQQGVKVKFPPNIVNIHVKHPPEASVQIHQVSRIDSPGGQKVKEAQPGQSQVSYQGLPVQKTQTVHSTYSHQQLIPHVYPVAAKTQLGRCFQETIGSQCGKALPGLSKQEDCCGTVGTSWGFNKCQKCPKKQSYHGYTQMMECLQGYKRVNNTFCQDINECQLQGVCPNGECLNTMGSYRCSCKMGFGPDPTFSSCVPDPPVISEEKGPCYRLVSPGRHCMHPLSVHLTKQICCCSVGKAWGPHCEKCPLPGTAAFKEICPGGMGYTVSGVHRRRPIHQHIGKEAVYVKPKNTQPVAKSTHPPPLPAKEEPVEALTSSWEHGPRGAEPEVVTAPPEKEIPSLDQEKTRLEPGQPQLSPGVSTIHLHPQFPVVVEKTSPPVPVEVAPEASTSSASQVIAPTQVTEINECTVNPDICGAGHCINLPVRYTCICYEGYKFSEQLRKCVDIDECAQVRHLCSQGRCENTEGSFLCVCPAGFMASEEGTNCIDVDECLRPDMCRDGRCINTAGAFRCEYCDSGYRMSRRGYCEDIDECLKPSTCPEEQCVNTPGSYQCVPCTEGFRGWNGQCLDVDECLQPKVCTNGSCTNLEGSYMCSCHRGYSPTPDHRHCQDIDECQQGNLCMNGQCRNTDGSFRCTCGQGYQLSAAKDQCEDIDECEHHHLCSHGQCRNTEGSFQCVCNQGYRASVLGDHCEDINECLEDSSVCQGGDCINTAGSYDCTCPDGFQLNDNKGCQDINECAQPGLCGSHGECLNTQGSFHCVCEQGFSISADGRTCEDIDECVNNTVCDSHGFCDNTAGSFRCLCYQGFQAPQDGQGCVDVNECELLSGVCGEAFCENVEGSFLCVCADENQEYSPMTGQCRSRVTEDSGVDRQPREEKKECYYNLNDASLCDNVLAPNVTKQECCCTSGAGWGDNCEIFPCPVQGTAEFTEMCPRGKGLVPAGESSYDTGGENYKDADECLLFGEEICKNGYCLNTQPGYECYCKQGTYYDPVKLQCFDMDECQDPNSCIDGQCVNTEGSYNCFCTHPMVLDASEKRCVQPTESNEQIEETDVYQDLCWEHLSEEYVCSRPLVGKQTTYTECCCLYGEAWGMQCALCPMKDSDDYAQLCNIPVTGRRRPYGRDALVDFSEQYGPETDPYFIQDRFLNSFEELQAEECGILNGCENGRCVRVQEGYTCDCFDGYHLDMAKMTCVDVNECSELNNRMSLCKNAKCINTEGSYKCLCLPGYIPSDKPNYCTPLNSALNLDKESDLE
T2 sequence (P04202 30-390 limits assumed, chain 2 of 2): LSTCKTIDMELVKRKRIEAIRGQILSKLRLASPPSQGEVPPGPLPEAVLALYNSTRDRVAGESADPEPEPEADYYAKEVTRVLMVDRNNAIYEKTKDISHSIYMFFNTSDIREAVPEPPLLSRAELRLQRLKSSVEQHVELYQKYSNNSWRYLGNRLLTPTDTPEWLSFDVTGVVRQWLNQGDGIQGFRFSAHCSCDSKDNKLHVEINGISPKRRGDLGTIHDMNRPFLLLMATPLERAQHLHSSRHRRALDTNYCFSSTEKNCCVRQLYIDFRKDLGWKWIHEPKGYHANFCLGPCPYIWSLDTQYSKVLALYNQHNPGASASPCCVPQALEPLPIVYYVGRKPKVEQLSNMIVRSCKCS
T3 sequence (Q14766 347-1721 limits assumed, chain 1 of 2): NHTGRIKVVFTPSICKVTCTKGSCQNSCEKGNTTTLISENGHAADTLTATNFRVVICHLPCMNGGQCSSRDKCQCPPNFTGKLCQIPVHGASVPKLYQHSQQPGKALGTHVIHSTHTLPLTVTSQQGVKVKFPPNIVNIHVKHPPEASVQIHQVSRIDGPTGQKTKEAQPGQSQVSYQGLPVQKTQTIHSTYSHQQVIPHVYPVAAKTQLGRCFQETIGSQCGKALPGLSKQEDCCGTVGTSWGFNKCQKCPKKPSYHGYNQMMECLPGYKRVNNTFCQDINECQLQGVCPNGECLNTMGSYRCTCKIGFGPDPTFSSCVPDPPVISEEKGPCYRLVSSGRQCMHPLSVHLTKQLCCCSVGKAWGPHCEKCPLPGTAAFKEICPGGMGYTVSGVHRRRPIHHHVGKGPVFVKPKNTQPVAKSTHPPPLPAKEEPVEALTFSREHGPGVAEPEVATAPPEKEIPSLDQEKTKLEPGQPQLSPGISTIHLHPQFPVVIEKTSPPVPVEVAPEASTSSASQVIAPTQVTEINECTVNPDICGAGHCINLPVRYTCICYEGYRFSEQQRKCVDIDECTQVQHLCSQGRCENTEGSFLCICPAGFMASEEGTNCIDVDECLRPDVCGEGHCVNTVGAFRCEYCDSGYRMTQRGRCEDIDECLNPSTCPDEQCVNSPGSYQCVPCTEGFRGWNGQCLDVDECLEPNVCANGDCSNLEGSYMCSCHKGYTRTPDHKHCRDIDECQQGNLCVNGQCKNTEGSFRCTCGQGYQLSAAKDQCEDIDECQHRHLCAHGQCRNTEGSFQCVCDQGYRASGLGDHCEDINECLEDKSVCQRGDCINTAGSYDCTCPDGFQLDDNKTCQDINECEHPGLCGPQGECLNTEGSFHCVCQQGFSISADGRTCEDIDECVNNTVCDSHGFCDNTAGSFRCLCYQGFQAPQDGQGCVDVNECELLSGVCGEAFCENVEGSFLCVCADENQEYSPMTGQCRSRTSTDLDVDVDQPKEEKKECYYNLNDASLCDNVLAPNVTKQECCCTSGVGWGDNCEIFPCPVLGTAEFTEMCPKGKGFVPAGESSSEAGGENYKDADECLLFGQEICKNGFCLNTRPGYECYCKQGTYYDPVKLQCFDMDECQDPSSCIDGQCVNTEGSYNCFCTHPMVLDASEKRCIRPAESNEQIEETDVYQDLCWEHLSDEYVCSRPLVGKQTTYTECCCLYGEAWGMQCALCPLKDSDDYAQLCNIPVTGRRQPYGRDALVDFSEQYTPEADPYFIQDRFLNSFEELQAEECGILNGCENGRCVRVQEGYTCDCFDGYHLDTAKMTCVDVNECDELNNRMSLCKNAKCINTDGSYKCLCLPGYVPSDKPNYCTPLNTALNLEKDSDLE
T3 sequence (P01137 30-390 limits assumed, chain 2 of 2): as the sequence (P01137 30-390 limits assumed, chain 2 of 2) above
T1 sequence (P01137 30-390): as the sequence (P01137 30-390 limits assumed, chain 2 of 2) above

B1: SR-AB13 (antibody, IgG1, V domains shown)
VH: QLQLQESGPGLVKPSETLSLTCTVSGGSISSSSYYWGWIRQPPGKGLEWIGSISYSGSTYYNPSLKSRVTISVDTSKNQFSLKLSSVTAADTAVYYCARDPSYDSIAGMDVWGQGTTVTVSS
VL: DIQLTQSPSSLSASVGDRVTITCRASQSISSYLNWYQQKPGKAPKLLIYAASNLQSGVPSRFSGSGSGTDFTLTISSLQPEDFATYYCQQSFDFPFTFGGGTKVEIK
notes: Parent antibody; also called SR-13
IC50, endogenous hLTBP assay (CAGA12 luciferase) [1]: 4.83 nM
IC50, mLTBP1 assay (CAGA12 luciferase) [2]: 25.4 nM
IC50, endogenous hLTBP assay (CAGA12 luciferase) [3]: 4.83 nM
IC50, mLTBP1 assay (CAGA12 luciferase) [4]: 25.4 nM
Kd [5]: 39.2 nM
Kd [6]: 35.9 nM
Kd [7]: 59.5 nM
normalized response [8]: 1.08 fraction of uninhibited binding
normalized response [9]: 1.29 fraction of uninhibited binding
normalized response [10]: 1.38 fraction of uninhibited binding
normalized response [11]: 0.47 fraction of uninhibited binding
binding result [12]: no binding (tested: 100 nM)
binding result [13]: no binding (tested: 100 nM)
Kd [14]: 148 nM
Kd [15]: 71 nM
Kd [16]: 102 nM

B2: SR-AB63-HuFab (Fab, V domains shown)
VH: B1 VH with S30R, G57A, S58T, R99G, D110Q
VL: B1 VL with F94W, F96L
notes: Human Fab
Kd [17]: 0.127 nM
koff [17]: 4.99e-05 s⁻¹
kon [17]: 394000 M⁻¹ s⁻¹
Kd [18]: 0.000103 nM
koff [18]: 3.82e-08 s⁻¹
kon [18]: 371000 M⁻¹ s⁻¹
Kd [19]: 349 nM
koff [19]: 0.00093 s⁻¹
kon [19]: 2660 M⁻¹ s⁻¹
Kd [20]: 216 nM
koff [20]: 0.00108 s⁻¹
kon [20]: 5000 M⁻¹ s⁻¹
Kd [21]: 0.03 nM
Kd [22]: 0.1 nM

B3: SR-AB10 (antibody, IgG1, V domains shown)
VH: QLQLQESGGGVVQPGRSLRLSCAASGFTFNNYPIHWVRQAPGKGLEWVAVMSYDGINKYYADSVKGRFTISRDNSKNTLYLQMNSLRAEDTAVYYCARPRIAARRGGFDYWGQGTLVTVSS
VL: NFMLTQPHSVSESPGKTVTISCTRSSGNIDNNYVQWYQQRPGSSPTTVIYEDNQRPSGVPDRFSGSIDSSSNSASLTISGLKTEDEADYYCQSYDSDNQGVVFGGGTKLTVL
notes: Parent antibody
IC50, endogenous hLTBP assay (CAGA12 luciferase) [23]: 3.64 nM
IC50, mLTBP1 assay (CAGA12 luciferase) [24]: 119 nM
IC50, endogenous hLTBP assay (CAGA12 luciferase) [25]: 3.64 nM
IC50, mLTBP1 assay (CAGA12 luciferase) [26]: 119 nM
Kd [7]: 14.2 nM
Kd [27]: 23 nM
normalized response [8]: 0.82 fraction of uninhibited binding
normalized response [9]: 1.53 fraction of uninhibited binding
normalized response [10]: 0.51 fraction of uninhibited binding
normalized response [11]: 1.27 fraction of uninhibited binding
binding result [13]: no binding (tested: 100 nM)
Kd [14]: 308 nM
Kd [16]: 79 nM
Kd [28]: 86 nM
